Measured values from the array DNA melting data of Ke et al..

Test: melting temperature; melt of duplexes
Settings: sodium 0.0675 M; strand 1 µM

**Q.** For “CGACGTGCCCTATGTGCTG+CAGCACATTAAGCACGTCG ((((((((...((((((((+))))))))...))))))))”, which Tm is on record?
**A.** 48.7 °C

**Q.** For “CGACGTGCTGAATGTGCTG+CAGCACATCGGGCACGTCG ((((((((...((((((((+))))))))...))))))))”, which Tm is on record?
**A.** 50.9 °C

**Q.** Which Tm does the source give for “CGACGTGCTAGATGTGCTG+CAGCACATTCAGCACGTCG (((((((((..((((((((+))))))))..)))))))))” here?
**A.** 52.8 °C

**Q.** For “CGACGTGCCCAATGTGCTG+CAGCACATCCCGCACGTCG ((((((((...((((((((+))))))))...))))))))”, which Tm is on record?
**A.** 47.9 °C

**Q.** For “CGACGTGCACAATGTGCTG+CAGCACATCAAGCACGTCG ((((((((...((((((((+))))))))...))))))))”, which Tm is on record?
**A.** 46.2 °C

**Q.** Which Tm does the source give for “CGACGTGCTCCATGTGCTG+CAGCACATTTGGCACGTCG ((((((((...((((((((+))))))))...))))))))” here?
**A.** 48.3 °C

**Q.** Which Tm does the source give for “CGACGTGCGGCATGTGCTG+CAGCACATCTCGCACGTCG (((((((((..((((((((+))))))))..)))))))))” here?
**A.** 53.4 °C

**Q.** With “CGACGTGCCGAATGTGCTG+CAGCACATCAGGCACGTCG (((((((((..((((((((+))))))))..)))))))))” as the substance, how does the Tm read?
**A.** 55.4 °C

**Q.** For “CGACGTGCGCGATGTGCTG+CAGCACATCGTGCACGTCG ((((((((.((((((((((+)))))))))).))))))))”, which Tm is on record?
**A.** 62.4 °C

**Q.** Which Tm does the source give for “CGACGTGCACGATGTGCTG+CAGCACATGGAGCACGTCG ((((((((.(.((((((((+)))))))).).))))))))” here?
**A.** 50.5 °C

**Q.** For “CGACGTGCTTTATGTGCTG+CAGCACATCTTGCACGTCG ((((((((...((((((((+))))))))...))))))))”, which Tm is on record?
**A.** 48.5 °C

**Q.** Which Tm does the source give for “CGACGTGCGCAATGTGCTG+CAGCACATGGCGCACGTCG ((((((((((.((((((((+)))))))).))))))))))” here?
**A.** 63 °C

**Q.** Which Tm does the source give for “CGACGTGCCGAATGTGCTG+CAGCACATTCGGCACGTCG (((((((((((((((((((+)))))))))))))))))))” here?
**A.** 66.5 °C

**Q.** Which Tm does the source give for “CGACGTGCGTAATGTGCTG+CAGCACATGCCGCACGTCG (((((((((..((((((((+))))))))..)))))))))” here?
**A.** 54.9 °C

**Q.** With “CGACGTGCCGAATGTGCTG+CAGCACATAAGGCACGTCG (((((((((..((((((((+))))))))..)))))))))” as the substance, how does the Tm read?
**A.** 58 °C

**Q.** With “CGACGTGCCGTATGTGCTG+CAGCACATCCTGCACGTCG ((((((((.(.((((((((+)))))))).).))))))))” as the substance, how does the Tm read?
**A.** 49.7 °C

**Q.** With “CGACGTGCTGTATGTGCTG+CAGCACATTCCGCACGTCG ((((((((.(.((((((((+)))))))).).))))))))” as the substance, how does the Tm read?
**A.** 50.1 °C

**Q.** For “CGACGTGCGACATGTGCTG+CAGCACATGAGGCACGTCG ((((((((..(((((((((+)))))))))..))))))))”, which Tm is on record?
**A.** 55.3 °C

**Q.** With “CGACGTGCCGGATGTGCTG+CAGCACATCTCGCACGTCG ((((((((..(((((((((+)))))))))..))))))))” as the substance, how does the Tm read?
**A.** 54.1 °C

**Q.** With “CGACGTGCCATATGTGCTG+CAGCACATCACGCACGTCG ((((((((...((((((((+))))))))...))))))))” as the substance, how does the Tm read?
**A.** 47.6 °C

**Q.** With “CGACGTGCCTTATGTGCTG+CAGCACATAATGCACGTCG ((((((((.((((((((((+)))))))))).))))))))” as the substance, how does the Tm read?
**A.** 53.7 °C

**Q.** With “CGACGTGCCAAATGTGCTG+CAGCACATTGAGCACGTCG ((((((((..(((((((((+)))))))))..))))))))” as the substance, how does the Tm read?
**A.** 53.9 °C

**Q.** Which Tm does the source give for “CGACGTGCTATATGTGCTG+CAGCACATTCAGCACGTCG (((((((((..((((((((+))))))))..)))))))))” here?
**A.** 51 °C

**Q.** Which Tm does the source give for “CGACGTGCGATATGTGCTG+CAGCACATCAGGCACGTCG ((((((((...((((((((+))))))))...))))))))” here?
**A.** 49.5 °C

**Q.** For “CGACGTGCCATATGTGCTG+CAGCACATCAGGCACGTCG (((((((((..((((((((+))))))))..)))))))))”, which Tm is on record?
**A.** 53.5 °C

**Q.** With “CGACGTGCGGAATGTGCTG+CAGCACATGTTGCACGTCG ((((((((...((((((((+))))))))...))))))))” as the substance, how does the Tm read?
**A.** 52.8 °C

**Q.** For “CGACGTGCACTATGTGCTG+CAGCACATTGGGCACGTCG ((((((((.(.((((((((+)))))))).).))))))))”, which Tm is on record?
**A.** 53.3 °C

**Q.** With “CGACGTGCTGGATGTGCTG+CAGCACATCAGGCACGTCG ((((((((..(((((((((+)))))))))..))))))))” as the substance, how does the Tm read?
**A.** 56.7 °C

**Q.** With “CGACGTGCTGCATGTGCTG+CAGCACATAACGCACGTCG ((((((((...((((((((+))))))))...))))))))” as the substance, how does the Tm read?
**A.** 49.4 °C

**Q.** With “CGACGTGCTGGATGTGCTG+CAGCACATGTTGCACGTCG ((((((((...((((((((+))))))))...))))))))” as the substance, how does the Tm read?
**A.** 51.4 °C

**Q.** Which Tm does the source give for “CGACGTGCACCATGTGCTG+CAGCACATTACGCACGTCG ((((((((...((((((((+))))))))...))))))))” here?
**A.** 42.4 °C

**Q.** Which Tm does the source give for “CGACGTGCGCGATGTGCTG+CAGCACATGCCGCACGTCG (((((((((..((((((((+))))))))..)))))))))” here?
**A.** 55.9 °C

**Q.** For “CGACGTGCCTAATGTGCTG+CAGCACATCATGCACGTCG ((((((((.(.((((((((+)))))))).).))))))))”, which Tm is on record?
**A.** 48.5 °C

**Q.** With “CGACGTGCGTCATGTGCTG+CAGCACATAACGCACGTCG ((((((((((.((((((((+)))))))).))))))))))” as the substance, how does the Tm read?
**A.** 58 °C

**Q.** With “CGACGTGCACCATGTGCTG+CAGCACATGGTGCACGTCG (((((((((((((((((((+)))))))))))))))))))” as the substance, how does the Tm read?
**A.** 65.2 °C

**Q.** For “CGACGTGCCATATGTGCTG+CAGCACATGTAGCACGTCG ((((((((.(.((((((((+)))))))).).))))))))”, which Tm is on record?
**A.** 51.3 °C

**Q.** For “CGACGTGCAGAATGTGCTG+CAGCACATGGAGCACGTCG ((((((((...((((((((+))))))))...))))))))”, which Tm is on record?
**A.** 55.6 °C

**Q.** Which Tm does the source give for “CGACGTGCATAATGTGCTG+CAGCACATGACGCACGTCG ((((((((.(.((((((((+)))))))).).))))))))” here?
**A.** 50.5 °C

**Q.** For “CGACGTGCATTATGTGCTG+CAGCACATAATGCACGTCG (((((((((((((((((((+)))))))))))))))))))”, which Tm is on record?
**A.** 60.7 °C

**Q.** Which Tm does the source give for “CGACGTGCGTTATGTGCTG+CAGCACATTCGGCACGTCG ((((((((...((((((((+))))))))...))))))))” here?
**A.** 49.8 °C

**Q.** With “CGACGTGCAGGATGTGCTG+CAGCACATAGCGCACGTCG ((((((((...((((((((+))))))))...))))))))” as the substance, how does the Tm read?
**A.** 49.6 °C

**Q.** Which Tm does the source give for “CGACGTGCGCCATGTGCTG+CAGCACATCGCGCACGTCG ((((((((((.((((((((+)))))))).))))))))))” here?
**A.** 58.3 °C

**Q.** For “CGACGTGCTAAATGTGCTG+CAGCACATTATGCACGTCG ((((((((..(((((((((+)))))))))..))))))))”, which Tm is on record?
**A.** 53.1 °C

**Q.** With “CGACGTGCGCTATGTGCTG+CAGCACATAGCGCACGTCG (((((((((((((((((((+)))))))))))))))))))” as the substance, how does the Tm read?
**A.** 66.4 °C

**Q.** With “CGACGTGCTTAATGTGCTG+CAGCACATTTTGCACGTCG ((((((((..(((((((((+)))))))))..))))))))” as the substance, how does the Tm read?
**A.** 52.5 °C

**Q.** Which Tm does the source give for “CGACGTGCAACATGTGCTG+CAGCACATGCGGCACGTCG ((((((((..(((((((((+)))))))))..))))))))” here?
**A.** 53.5 °C

**Q.** With “CGACGTGCATTATGTGCTG+CAGCACATGAGGCACGTCG ((((((((.(.((((((((+)))))))).).))))))))” as the substance, how does the Tm read?
**A.** 54 °C

**Q.** For “CGACGTGCATTATGTGCTG+CAGCACATGCAGCACGTCG ((((((((...((((((((+))))))))...))))))))”, which Tm is on record?
**A.** 48.7 °C

**Q.** For “CGACGTGCGACATGTGCTG+CAGCACATAAAGCACGTCG ((((((((...((((((((+))))))))...))))))))”, which Tm is on record?
**A.** 55.2 °C

**Q.** For “CGACGTGCAGGATGTGCTG+CAGCACATGGGGCACGTCG ((((((((...((((((((+))))))))...))))))))”, which Tm is on record?
**A.** 50.4 °C

**Q.** Which Tm does the source give for “CGACGTGCAGAATGTGCTG+CAGCACATACAGCACGTCG ((((((((.(.((((((((+)))))))).).))))))))” here?
**A.** 52 °C

**Q.** With “CGACGTGCCGCATGTGCTG+CAGCACATAGCGCACGTCG ((((((((...((((((((+))))))))...))))))))” as the substance, how does the Tm read?
**A.** 53.9 °C
